Substitutions are numbered along the chain they refer to.

One experiment deals with SLAMF9 protein (UniProt Q96A28 19-236, limits assumed). Nature of the experiment: phage clone on SLAMF9 protein.
Experiment [1] addresses T1, FcRL2, overexpressed on 3T3 cells (UniProt Q96LA5 20-508, limits assumed).
T1 construct: whole, on cells
T1 sequence (looked up): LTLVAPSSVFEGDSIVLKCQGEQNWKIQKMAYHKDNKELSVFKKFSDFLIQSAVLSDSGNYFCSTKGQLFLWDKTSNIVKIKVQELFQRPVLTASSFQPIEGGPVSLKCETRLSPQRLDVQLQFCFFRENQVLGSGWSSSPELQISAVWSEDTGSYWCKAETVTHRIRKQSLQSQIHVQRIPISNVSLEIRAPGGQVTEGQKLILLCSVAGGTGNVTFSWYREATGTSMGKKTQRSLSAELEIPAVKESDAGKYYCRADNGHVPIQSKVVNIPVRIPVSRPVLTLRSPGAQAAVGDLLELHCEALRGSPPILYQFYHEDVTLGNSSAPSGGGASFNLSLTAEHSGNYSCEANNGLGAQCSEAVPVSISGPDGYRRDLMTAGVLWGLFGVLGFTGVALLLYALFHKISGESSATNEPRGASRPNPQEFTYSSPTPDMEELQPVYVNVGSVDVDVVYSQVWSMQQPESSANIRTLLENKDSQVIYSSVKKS
Nature of the experiment: phage clone on 3T3-FcRL2 cells.

Experiment [2] addresses T2, FcRL3, overexpressed on 3T3 cells (UniProt Q96P31 18-734, limits assumed).
T2 construct: whole, on cells
T2 sequence (looked up): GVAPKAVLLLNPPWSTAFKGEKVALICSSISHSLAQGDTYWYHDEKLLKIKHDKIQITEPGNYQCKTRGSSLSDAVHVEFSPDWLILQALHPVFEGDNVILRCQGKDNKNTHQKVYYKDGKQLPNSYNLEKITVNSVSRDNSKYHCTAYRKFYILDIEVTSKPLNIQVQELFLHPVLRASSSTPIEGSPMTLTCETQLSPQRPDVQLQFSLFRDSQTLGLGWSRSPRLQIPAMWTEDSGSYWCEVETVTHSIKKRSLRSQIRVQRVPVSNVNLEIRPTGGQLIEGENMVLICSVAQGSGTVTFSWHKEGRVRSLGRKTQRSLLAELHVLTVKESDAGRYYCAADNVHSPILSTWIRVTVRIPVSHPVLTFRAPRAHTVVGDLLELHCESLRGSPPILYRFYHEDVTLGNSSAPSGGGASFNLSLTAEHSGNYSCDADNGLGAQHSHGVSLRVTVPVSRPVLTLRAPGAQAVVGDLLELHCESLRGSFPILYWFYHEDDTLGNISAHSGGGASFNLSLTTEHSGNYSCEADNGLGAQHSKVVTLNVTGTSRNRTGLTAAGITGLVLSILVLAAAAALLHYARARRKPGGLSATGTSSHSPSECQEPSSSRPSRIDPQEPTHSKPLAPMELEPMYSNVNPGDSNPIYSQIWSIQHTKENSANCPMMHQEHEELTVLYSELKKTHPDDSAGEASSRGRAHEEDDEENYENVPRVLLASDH
Briefly: phage clone on 3T3-FcRL3 cells.

Experiment [3] concerns the target T3, FcRL6, overexpressed on 3T3 cells (UniProt Q6DN72 20-434, limits assumed).
T3 construct: whole, on cells
T3 sequence (looked up): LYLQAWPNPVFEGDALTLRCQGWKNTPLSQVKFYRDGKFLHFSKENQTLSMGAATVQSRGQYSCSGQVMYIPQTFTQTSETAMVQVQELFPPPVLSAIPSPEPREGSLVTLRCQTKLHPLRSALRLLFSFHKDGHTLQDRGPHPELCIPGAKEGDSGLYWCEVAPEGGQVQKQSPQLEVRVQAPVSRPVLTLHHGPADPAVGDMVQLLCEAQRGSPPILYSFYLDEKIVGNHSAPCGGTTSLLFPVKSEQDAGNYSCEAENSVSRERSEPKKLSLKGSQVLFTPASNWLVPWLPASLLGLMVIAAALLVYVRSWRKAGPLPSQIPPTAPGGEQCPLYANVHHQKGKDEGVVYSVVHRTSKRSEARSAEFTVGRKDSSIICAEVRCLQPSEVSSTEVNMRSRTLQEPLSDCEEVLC
Briefly: phage clone on 3T3-FcRL6 cells.

Experiment [4] concerns the target T4, Fc Receptor-like 5 (FcRL5), full length, overexpressed on 3T3 or Raji cells (human, UniProt Q96RD9 16-977).
T4 construct: also called 3T3-FcRL5
T4 sequence: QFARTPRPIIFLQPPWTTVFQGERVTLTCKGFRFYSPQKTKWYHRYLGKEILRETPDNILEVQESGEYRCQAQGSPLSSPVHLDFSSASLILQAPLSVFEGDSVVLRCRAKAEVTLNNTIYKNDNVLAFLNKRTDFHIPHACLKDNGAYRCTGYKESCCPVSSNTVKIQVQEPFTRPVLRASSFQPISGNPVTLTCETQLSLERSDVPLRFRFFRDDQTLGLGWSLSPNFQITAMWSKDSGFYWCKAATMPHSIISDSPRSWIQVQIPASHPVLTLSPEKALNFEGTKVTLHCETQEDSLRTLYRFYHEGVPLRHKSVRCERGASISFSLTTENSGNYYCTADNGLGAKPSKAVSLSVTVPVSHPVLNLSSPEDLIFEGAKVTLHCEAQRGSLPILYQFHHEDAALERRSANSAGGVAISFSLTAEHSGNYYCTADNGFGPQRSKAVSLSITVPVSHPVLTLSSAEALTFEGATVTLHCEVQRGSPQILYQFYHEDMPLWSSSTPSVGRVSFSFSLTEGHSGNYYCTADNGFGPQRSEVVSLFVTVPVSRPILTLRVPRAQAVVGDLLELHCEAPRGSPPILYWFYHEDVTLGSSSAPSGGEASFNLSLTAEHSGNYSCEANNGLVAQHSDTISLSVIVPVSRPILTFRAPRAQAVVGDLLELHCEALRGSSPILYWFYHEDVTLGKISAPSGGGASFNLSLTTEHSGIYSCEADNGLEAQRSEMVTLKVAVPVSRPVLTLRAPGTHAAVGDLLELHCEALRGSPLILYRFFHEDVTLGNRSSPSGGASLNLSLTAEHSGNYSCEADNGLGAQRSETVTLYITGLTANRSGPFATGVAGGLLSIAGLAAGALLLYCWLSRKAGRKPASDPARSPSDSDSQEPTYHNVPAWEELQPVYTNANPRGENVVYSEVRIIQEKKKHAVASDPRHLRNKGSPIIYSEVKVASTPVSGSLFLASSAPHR
Briefly: phage clone screening on cells. The procedure: Once selected, positive scFv clones are further tested for their binding to FcRL5 (e.g., human FcRL5) on live 3T3 cell surfaces by flow cytometry. Briefly, phage clones are incubated with 3T3 cells over-expressing FcRL5. The cells are washed and then incubated with a mouse anti-M13 coat protein mAb. Cells are washed again and labeled with a PE-horse anti-mouse Ig prior to flow cytometry.
Phage′ display against FcRL5 was performed to enrich for scFv phage clones that bind to FcRL5 specifically. Screening was carried out on FcRL5 overexpressing 3T3 cells or 3T3 cells expressing FcRL1, 2, 3, 4 or 6 as a negative control (FIG. 2).

SLAMF9 protein, sequence (Q96A28 19-236 limits assumed): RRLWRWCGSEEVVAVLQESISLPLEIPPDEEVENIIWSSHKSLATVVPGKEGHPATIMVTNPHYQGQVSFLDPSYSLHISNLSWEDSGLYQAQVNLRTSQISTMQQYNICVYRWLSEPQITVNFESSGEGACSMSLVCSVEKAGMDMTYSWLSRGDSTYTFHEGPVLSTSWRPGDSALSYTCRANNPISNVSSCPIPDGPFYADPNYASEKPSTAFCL

B1: ET200-028 (scFv)
scFv: QSVLTQPPAASGTPGQRVTISCSGGVSNIGSGALNWYQQLPGTAPKLLIYSYNQRPSGVSDRFSGSRSATSASLAISGLQSEDEADYYCATWDDSVNGWVFGGGTKLTVLGSRGGGGSGGGGSGGGGSLEMAQVQLVQSGAEVKKPGDSVKVSCKPSGYNFLNYGINWVRQAPGQGLEWMGWISTYTGNTNYAQKLQGRVTFTTDTSTSTAYMEMRSLRSDDTAVYYCARDLYYYEGVDYWGQGTLVTVSSTSGQAGQHHHHHHGAYPYDVPDYAS
notes: screened as phage clone; entry is VL-linker-VH-His tag-HA tag
For B1, the binding result in the experiment with SLAMF9 protein is “no binding”; in experiment [1] it was “no binding”; in experiment [2], “no binding”; in experiment [3] it was “no binding”; in experiment [4] it was “binds”.

B2: ET200-030 (scFv)
scFv: QSVVTQPPSVSGAPGQRVTISCTGSSSNIGAGYDVNWYQQFPGTAPKLLIYGNSNRPSGVPDRFSGSKSGTSASLAITGLQAEDEADYYCQSYDSSLSGSYVFGTGTKVTVLGSRGGGGSGGGGSGGGGSLEMAQMQLVQSGAEVKKPGASVKVSCKASGYTLTELSMHWVRQAPGKGLEWMGGFDPEDGETIYAQKFQGRVTMTEDTSTDTAYMELSSLRSEDTAVYYCARMSSMYYDWGQGTLVTVSSTSGQAGQHHHHHHGAYPYDVPDYAS
notes: as for B1
In the case of B2, the binding result in the experiment with SLAMF9 protein was “no binding”; in experiment [1] it was “no binding”; in experiment [2], “no binding”; in experiment [3], “no binding”; in experiment [4] it was “binds”.

B3: ET200-026 (scFv)
scFv: NFMLTQPHSVSESPGKTVTISCTGSSGSIASNYVQWYQQRPGSAPTTVIYEDNQRPSGVPDRFSGSIDSSSNSASLTISGLKTEDEADYYCQSYDSSNWVFGGGTKLTVLGSRGGGGSGGGGSGGGGSLEMAEVQLVQSGAEVKKPGSSVKVSCKASGGTFSSYAISWVRQAPGQGLEWMGGIIPIFGTANYAQKFQGRVTITADESTSTAYMELSSLRSEDTAVYYCARNNHYYNDYWGQGTLVTVSSTSGQAGQHHHHHHGAYPYDVPDYAS
notes: as for B1
B3: the binding result in the experiment with SLAMF9 protein is “no binding”; in experiment [1], “no binding”; in experiment [2], “no binding”; in experiment [3], “no binding”; in experiment [4], “binds”.

B4: ET200-035 (scFv)
scFv: B3 scFv with G24R, S97T, E133Q, N231Y, H233Y, Y235F
notes: as for B1
With B4, the binding result was “no binding” with SLAMF9 protein; “no binding” in experiment [1]; “no binding” in experiment [2]; “no binding” in experiment [3]; “binds” in experiment [4].

B5: ET200-027 (scFv)
scFv: QSVLTQPPSVSGAPGQGVTIPCTGSSSNIGAGYDVHWYQQLPGTAPKLLIYGNNNRPSGVPDRFSGSRSGSSASLAITGLQAEDEADYYCQSYDSSLSDVVFGGGTKVTVLGSRGGGGSGGGGSGGGGSLEMAEVQLVQSGAEVKKPGATVKISCKVSGYTFTDYYMHWVQQAPGKGLEWMGLVDPEDGETIYAEKFQGRVTITADTSTDTAYMELSSLRSEDTAVYYCARYWSYSFDYLYMPEGNDWWGQGTLVTVSSTSGQAGQHHHHHHGAYPYDVPDYAS
notes: as for B1
On to B5, for which the binding result in the experiment with SLAMF9 protein was “no binding”; in experiment [1], “no binding”; in experiment [2], “no binding”; in experiment [3] it was “no binding”; in experiment [4] it was “binds”.

B6: ET200-002 (scFv)
scFv: NFMLTQPHSVSESPGKTVTISCTRSSGSIASNYVQWYQQRPGSAPTTVIYEDNQRPSGVPDRFSGSIDSSSNSASLTISGLKTEDEADYYCQSYDSSNSVVFGGGTKLTVLGSRGGGGSGGGGSGGGGSLEMAQVQLVQSGTEVKKPGASVRVACKASGYPFNKYDINWVRQAPGQGLEWMGGIIPIFRTTNYAQKFQGRVTITADESTSTAYMELSSLRSEDTAVYYCAREWFYWDIWGQGTLVTVSSTSGQAGQHHHHHHGAYPYDVPDYAS
notes: as for B1
Consider B6, for which the binding result was “no binding” with SLAMF9 protein; “no binding” in experiment [1]; “no binding” in experiment [2]; “no binding” in experiment [3]; “binds” in experiment [4].

B7: ET200-029 (scFv)
scFv: QAVLTQPPSVSVAPGKTARVTCGGNNIGSESVHWYQQKPGQAPVLVIYYDTDRPSGIPERFSGSHSGTTATLTISRVEAGDEADYYCQVWDSSRDHVVFGGGTKLTVLGSRGGGGSGGGGSGGGGSLEMAQVQLVQSGGGVVQPGRSLRLSCAASGFTFSSYAMHWVRQAPGKGLEWVAVISYDGSNKYYADSVKGLFTISRDNSKNTLYLQMNSLRAEDTAVYYCARSYFTSGFYDYWGQGTLVTVSSTSGQAGQHHHHHHGAYPYDVPDYAS
notes: as for B1
B7: the binding result in the experiment with SLAMF9 protein is “no binding”; in experiment [1], “no binding”; in experiment [2], “no binding”; in experiment [3], “no binding”; in experiment [4], “binds”.
